Our source for the Kd values is PMC12309418, “Human Plastins are Novel Cytoskeletal pH Sensors with a Reduced F-actin Bundling Capacity at Basic pH” (Journal of molecular biology, 2025).

Holding throughout (settings): both partners purified
The target in assay [1] is T1, Skeletal actin, filamentous (F-actin) (rabbit, UniProt P68135 1-377). Nature of the assay: co-sedimentation; high-speed co-sedimentation (300,000 g, 30 min, 25 °C), 5 uM PLS2 with 0-100 uM F-actin, 10 mM HEPES pH 8.0, 30 mM KCl, 2 mM MgCl2, 0.5 mM EGTA; fraction of PLS2 in the pellet fit to a binding curve.
Assay [2] deals with T1, Skeletal actin, filamentous (F-actin). Nature of the assay: co-sedimentation; high-speed co-sedimentation (300,000 g, 30 min, 25 °C), 5 uM PLS2 with 0-100 uM F-actin, 10 mM HEPES pH 7.0, 30 mM KCl, 2 mM MgCl2, 0.5 mM EGTA; fraction of PLS2 in the pellet fit to a binding curve.
Assay [3] shares this target. In words: co-sedimentation; high-speed co-sedimentation (300,000 g, 30 min, 25 °C), 2 uM ABD1 with 0-125 uM F-actin, 10 mM HEPES pH 8.0, 30 mM KCl, 2 mM MgCl2, 0.5 mM EGTA; fraction depleted from the supernatant fit to a binding curve.
Assay [4] shares this target. In words: co-sedimentation; high-speed co-sedimentation (300,000 g, 30 min, 25 °C), 2 uM ABD1 with 0-125 uM F-actin, 10 mM HEPES pH 7.0, 30 mM KCl, 2 mM MgCl2, 0.5 mM EGTA; fraction depleted from the supernatant fit to a binding curve.

B1: plastin 2 (PLS2), full-length (natural protein)
chain: MARGSVSDEEMMELREAFAKVDTDGNGYISFNELNDLFKAACLPLPGYRVREITENLMATGDLDQDGRISFDEFIKIFHGLKSTDVAKTFRKAINKKEGICAIGGTSEQSSVGTQHSYSEEEKYAFVNWINKALENDPDCRHVIPMNPNTNDLFNAVGDGIVLCKMINLSVPDTIDERTINKKKLTPFTIQENLNLALNSASAIGCHVVNIGAEDLKEGKPYLVLGLLWQVIKIGLFADIELSRNEALIALLREGESLEDLMKLSPEELLLRWANYHLENAGCNKIGNFSTDIKDSKAYYHLLEQVAPKGDEEGVPAVVIDMSGLREKDDIQRAECMLQQAERLGCRQFVTATDVVRGNPKLNLAFIANLFNRYPALHKPENQDIDWGALEGETREERTFRNWMNSLGVNPRVNHLYSDLSDALVIFQLYEKIKVPVDWNRVNKPPYPKLGGNMKKLENCNYAVELGKNQAKFSLVGIGGQDLNEGNRTLTLALIWQLMRRYTLNILEEIGGGQKVNDDIIVNWVNETLREAKKSSSISSFKDPKISTSLPVLDLIDAIQPGSINYDLLKTENLNDDEKLNNAKYAISMARKIGARVYALPEDLVEVNPKMVMTVFACLMGKGMKRV
notes: plastin 2 (PLS2, L-plastin, LCP1), human, full-length (FL) protein; Cloned in pColdI behind a 6xHis tag and TEV site; also called LCP1; L-plastin; source: E. coli BL21-CodonPlus(DE3)pLysS, purified (IMAC on cobalt resin, TEV cleavage, Superdex 200); not shown: His6, N-terminal, cleaved
Usually Kd stands for the concentration at which binding is half-saturated. The low end stands for a tighter complex, the high end for a looser complex. For the molecule B1, the Kd was determined as 17.7 µM in assay [1] and 31.7 µM in assay [2].

B2: PLS2 ABD1 (a.a. 120-385) (domain or fragment)
chain: EEEKYAFVNWINKALENDPDCRHVIPMNPNTNDLFNAVGDGIVLCKMINLSVPDTIDERTINKKKLTPFTIQENLNLALNSASAIGCHVVNIGAEDLKEGKPYLVLGLLWQVIKIGLFADIELSRNEALIALLREGESLEDLMKLSPEELLLRWANYHLENAGCNKIGNFSTDIKDSKAYYHLLEQVAPKGDEEGVPAVVIDMSGLREKDDIQRAECMLQQAERLGCRQFVTATDVVRGNPKLNLAFIANLFNRYPALHKPENQDI
notes: source: E. coli BL21-CodonPlus(DE3)pLysS, purified (IMAC on cobalt resin, TEV cleavage, Superdex 200); not shown: His6, N-terminal, cleaved
As for B2, the equilibrium dissociation constant (Kd) worked out at 13.9 µM in assay [3] and 24.7 µM in assay [4].
